Results as given in patent publication US11242370B2, “Neuregulin-4 compounds and methods of use” (Eli Lilly and Company, priority 2019, dated 2022).

Target: T1, human HER2/HER3 (Homo sapiens, UniProt P21860)
T1 construct: expressed in transfected cells
Experiment: Human HER2/HER3 phospho-ERK 1/2 assay, purified proteins, CHO-K1 cells
Format: cell-based
Conditions: for EC50: purified proteins, phospho-ERK1/2
Procedure: A cell based assay utilizing CHO-K1 cells overexpressing human or rat HER receptors is used to determine activity of NRG4 compounds. CHO-K1 cells (ATCC) are grown in DMEM-F12 3:1 with 5% FBS with 20 mM HEPES, 40 μg/mL L-Proline, lx antibiotics and were split 1:5 every 2-3 days with TripLE Express (Gibco). Cells are transfected with plasmid DNA encoding HER receptors in pairs (hHER2-3, hHER2-4, rHER2-3 and rHER2-4) with Fugene 6 (Promega) according to the manufacturer's instructions. […] Transfected cells are selected with Puromycin (12 ug/ml) and Hygromycin (1 mg/ml) for 3-4 weeks and clonal lines are obtained by limited dilution cloning into 96 well plates. Clonal lines are selected by appropriate gene expression of HER2, HER3 or HER4 by Taqman method. Lines with appropriate receptor expression are confirmed by NRG1 induced phospho-ERK 1/2 responses. Clones are grown up, harvested, aliquoted into cryovials and then frozen under liquid nitrogen for long-term storage.
A phospho-ERK1/2 activity assay is utilized with CHO-K1 cells overexpressing human or rat HER receptors to determine potencies and selectivity of purified NRG4 compounds. CHO-K1 cell lines expressing the human or rat HER receptors are cultured with selection medium (DMEM-F12 3:1 with 5% FBS with 20 mM HEPES, 40 μg/mL L-Proline, 1× antibiotics, 12 μg/mL puromycin, 1 mg/mL Hygromycin B). On Day −1 (the day before phospho-ERK1/2 assay), cells are washed once with PBS, detached with enzyme free cell dissociation solution (GIBCO cat #13151-014), and resuspended in plating medium (DMEM-F12 3:1 with 20 mM HEPES, lx antibiotics, 0.2% FBS). Cells are plated in a 96-well Poly-D-Lysine coated plate (BD cat #354640) at 10,000 cells per 0.1 mL per well. Cells are cultured in a tissue culture incubator at 37° C. 5% CO2 overnight. On Day 1 (the day of pERK1/2 assay), plates are incubated at room temperature for 30 min. The culture media are removed followed by addition of 504, ligand at various concentrations diluted in PBS-20 mM HEPES-0.005% BSA. Native human NRG1 and NRG4 peptides are purchased from Reprokine (Tampa, Fla.). The stimulation time is 30 min (except for hHER2-4 1H6 line in which 15 min is used for stimulation). At the end of stimulation, ligands are removed and 704, Lysis buffer (made according to manufacturer's recipe, Perkin Elmer cat #ALSU-PERK-A10K) is added. Plates are incubated at room temperature for 10 min on plate shaker with 350 rpm agitation, then on ice for 1 hour without shaking. 304, of cell lysis is transferred to a 96-well white Optiplate (Perkin Elmer cat #6002290) for phospho-ERK1/2 assay. Briefly 7.5 μL acceptor beads are added to 30 μL lysis in Optiplate. The plate is covered with aluminum foil and incubated at room temperature for 1 hour on plate shaker with 350 rpm agitation. Then 7.5 μL donor beads are added and the plate is covered with aluminum foil and incubated at room temperature for 2 hours on plate shaker with 350 rpm agitation or at 4° C. for overnight (warm up plate at room temperature for 2 h before reading). Alpha signal data are obtained on an Envision instrument (Alpha Technology-compatible plate reader). Donor beads and acceptor beads are made according to assay protocol. The data shown are generated with either the AlphaScreen SureFire p-ERK1/2 (Thr202/Tyr204) assay kit (Cat #TGRES50k) or the AlphaLISA® SureFire® Ultra™ p-ERK 1/2 (Thr202/Tyr204) assay kit (Perkin Elmer cat #ALSU-PERK-A10K). The activity of the NRG1 peptide was similar in both types of assays. […]

| EC50 | phospho-ERK1/2 activity at the human HER3 HER2 receptors (statement in text on Table 9) | Molecule |
| --- | --- | --- |
| > 1000 nM | no activity | WT NRG4: wild type human NRG4 (SEQ ID NO:1); parental hFcNRG4 in screening (Tables 4-6), native peptide from Reprokine in Tables 7-9 (DHEEPCGPSHKSFCLNGGLCYVIPTIPSPFCRCVENYTGARCEEVFL; listed as Homo sapiens) |
| 0.83 ± 0.2 nM | – | WT NRG1: wild type human NRG1; native peptide purchased from Reprokine in Tables 7-9; comparator in the screening assays of Tables 4 and 6 |

| Molecule | EC50 | phospho-ERK1/2 activity at the human HER3 HER2 receptors (statement in text on Table 9) |
| --- | --- | --- |
| Example 10: NRG4 D1G/V22Q/E44K, (GGGGS)3 linker, SEQ ID NO: 19, fused to IgG Fc dimer SEQ ID NO: 6 and 7 (protein) chain 1: GGGGSGGGGSGGGGSGHEEPCGPSHKSFCLNGGLCYQIPTIPSPFCRCVENYTGARCEKVFL chain 2: ECPPCPAPPVAGPSVFLFPPKPKDTLMISRTPEVTCVVVDVSHEDPEVQFNWYVDGVEVHNAKTKPREEQFNSTFRVVSVLTVVHQDWLNGKEYKCKVSNKGLPAPIEKTISKTKGQPREPQVYTLPPSREEMTKNQVSLWCLVKGFYPSDIAVEWESNGQPENNYKTTPPVLDSDGSFFLYSKLTVDKSRWQQGNVFSCSVMHEALHNHYTQKSLSLSPG chain 3: ECPPCPAPPVAGPSVFLFPPKPKDTLMISRTPEVTCVVVDVSHEDPEVQFNWYVDGVEVHNAKTKPREEQFNSTFRVVSVLTVVHQDWLNGKEYKCKVSNKGLPAPIEKTISKTKGQPREPQVYTLPPSREEMTKNQVSLSCAVKGFYPSDIAVEWESNGQPENNYKTTPPVLDSDGSFFLVSKLTVDKSRWQQGNVFSCSVMHEALHNHYTQKSLSLSPG | > 1000 nM | – |
